# Measurements published in PMC10046460, “Phase I Trial of [^99mTc]Tc-maSSS-PEG2-RM26, a Bombesin Analogue Antagonistic to Gastrin-Releasing Peptide Receptors (GRPRs), for SPECT Imaging of GRPR Expression in Malignant Tumors” (Cancers, 2023).
# Where two headings read alike, the source gives them in different places. Square brackets hold non-standard residues; d marks the D form. Peptide text beside a SMILES is read from it. * marks the point of attachment. Sta = CC(C)C[C@H](N)[C@@H](O)CC(=O)O; Mercaptoacetyl = O=C(CS)*; AEEA = NCCOCCOCC(=O)O
# Key:
# [1] = target: T1, gastrin-releasing peptide receptor (GRPR) (Homo sapiens, UniProt P30550); assay: SPECT/CT imaging of tumor and LN metastasis uptake in BCa patients; assay type: in vivo; details: for SUVmax, tumor (T) / SUVmax, single LN metastasis (LNM): 2 h post administration, 40 µg iv; for median activity accumulation (SUVmax): 2 h after injection, Me [Q1–Q3]
# T1 construct: from tissue; host or cells: primary prostate cancer, primary breast cancer and axillary lymph-node metastases in living patients
# Description: (§1) A single-center diagnostic phase I open-label exploratory study (ClinicalTrials.gov ID NCT04746638) was conducted at the Cancer Research Institute, Tomsk National Research Medical Center of the Russian Academy of Sciences, and the initial protocol was approved by the Institute’s Scientific Council and Board of Medical Ethics (protocol 14, approved 21 December 2020). Patients (18–70 y) with clinically and radiologically diagnosed (with histological verification) PCa or BCa were included in this study after providing written informed consent. Criteria for inclusion were: the ability to undergo planned diagnostic investigations; patient’s hematological, liver, and renal function test results within the normal limits; and a negative pregnancy test for BCa patients. The exclusion criteria included contraindications to surgical intervention due to severe concomitant pathology; a second malignancy (non-breast or non-prostate); activity/history of autoimmune disease, hepatitis B or C, HIV, or infectious diseases within the preceding 3 months; participation in other clinical studies; and ongoing toxicity over grade 2 from previous standards or investigational therapies. Additionally, for PCa patients, exclusion criteria were androgen deprivation therapy over 3 months, and for BCa patients, exclusion criteria were HER2-positive or non-luminal cancer, in situ T0 and T3-4 tumors, the presence of distant metastases, and history of chemo- and/or hormone-therapy. Six male PCa and seven female BCa patients were included in the study (Figure 1 and Figure 2).
# (§2) Patients were injected with [^99mTc]Tc-maSSS-PEG2-RM26 (40 µg of maSSS-PEG2-RM26 labeled with 640 ± 165 MBq for PCa and 695 ± 120 MBq for BCa patients per injection) as a single intravenous bolus. Imaging was performed using a hybrid system (Symbia Intevo T16), equipped with a dual-head gamma camera and an integrated 16-slice CT scanner. For imaging, a low-energy high-resolution collimator was used. Patients underwent whole-body planar images (anterior and posterior, with a of scan speed 12 cm/min in a 1024 × 256 pixel matrix) and SPECT-CT acquisition (32 projections, 30 s each, in a 128 × 128 pixel matrix) and a low-dose CT (140 kVp, 20 mAs/slice in a 512 × 512 pixel matrix) were performed 2, 4, 6, and 24 h after injection. The images were transferred to a Syngo.via (Siemens) workstation for analysis.
# clinical = details: human, in vivo; for tissue uptake dose at 2 h / tissue uptake dose at 4 h / tissue uptake dose at 6 h / tissue uptake dose at 24 h: iv, 40 ug, total radioactivity, Distribution, SD
# Description: as §2
# (§3) The geometric means of counts in the regions of interest (ROIs) drawn over organs and the whole body for anterior and posterior projections were calculated for every time point. An ROI for the heart was used to estimate activity concentrations in the blood. Quantification was performed as described previously. Absorbed doses for individual organs, effective doses, and effective dose equivalents were calculated in OLINDA/EXM 1.1 (adult male phantom for PCa and adult female phantom for BCa) using average residence times derived from activity distributions over time fitted to a single exponential using Prism 9.2.0 (GraphPad Software, LLC, Boston, MA, USA).
# [2] = set-up: species or system human; details: in vivo
# Description: as §3
# [3] = target: T1, gastrin-releasing peptide receptor (GRPR); assay: SPECT/CT imaging of tumor uptake in PCa patients; assay type: in vivo; details: for SUVmax: prostate tumor, 40 µg iv; for SUVmax / Ratio SUVmax in Tumor to Background: 2 h post administration
# Description: as §1, §2
# [4] = test system: prostate-specific membrane antigen (PSMA); details: PCa patients; cited from earlier work
# Description: Prostate and breast cancers are the most common sex-related malignancies, with an increasing incidence in many countries over the past 30 years. Accurate diagnosis and staging of the diseases are important for the prognosis and determination of treatment tactics for these pathologies. […] Many derivatives of this pseudo-peptide were tested clin ...
# [5] = in vivo; cited from earlier work
# Text: The biodistribution of [^99mTc]Tc-maSSS-PEG2-RM26 was characterized by the rapid whole body elimination and blood clearance of unbound tracers (Figure 4). This decreases the background caused by the blood-borne activity and creates preconditions for high-contrast imaging. The clinical trial confirmed the major feature of the tracer found in the preclinical studies, a substantial degree of hepatobiliary excretion. The hepatobiliary excretion of [^99mTc]Tc-maSSS-PEG2-RM26 was the highest among other GRPR antagonists tested in clinics and was similar to the excretion of [^99mTc]Tc-RP527, a ...
# T1 sequence (P30550 whole entry): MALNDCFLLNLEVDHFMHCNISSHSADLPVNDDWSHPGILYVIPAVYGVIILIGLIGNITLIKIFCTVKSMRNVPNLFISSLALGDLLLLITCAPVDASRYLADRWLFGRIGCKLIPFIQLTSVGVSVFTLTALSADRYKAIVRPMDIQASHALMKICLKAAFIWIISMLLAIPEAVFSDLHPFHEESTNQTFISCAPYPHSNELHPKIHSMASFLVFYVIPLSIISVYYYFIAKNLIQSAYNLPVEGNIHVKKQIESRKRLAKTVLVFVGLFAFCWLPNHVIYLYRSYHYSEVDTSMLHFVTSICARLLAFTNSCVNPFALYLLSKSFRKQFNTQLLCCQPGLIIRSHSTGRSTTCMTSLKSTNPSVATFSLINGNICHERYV
compound,measurement,setting,value
"CC(C)C[C@H](NC(=O)C[C@H](O)[C@H](CC(C)C)NC(=O)[C@H](Cc1c[nH]cn1)NC(=O)CNC(=O)[C@@H](NC(=O)[C@H](C)NC(=O)[C@H](Cc1c[nH]c2ccccc12)NC(=O)[C@H](CCC(N)=O)NC(=O)[C@@H](Cc1ccccc1)NC(=O)COCCOCCNC(=O)[C@H](CO)NC(=O)[C@H](CO)NC(=O)[C@H](CO)NC(=O)CS)C(C)C)C(N)=O [[^99mTc]Tc-maSSS-PEG2-RM26, metal not drawn] (Mercaptoacetyl-SSS[AEEA][dF]QWAVGH[Sta]L-NH2)","SUVmax, tumor (T)","[1]; BCa patient B1, SPECT/CT",T: 1.41 (2.8 × 2.2)
same,"SUVmax, single LN metastasis (LNM)","[1]; BCa patient B2, SPECT/CT",1.8
same,"SUVmax, tumor (T)","[1]; BCa patient B2, SPECT/CT",1.75
same,"SUVmax, single LN metastasis (LNM)","[1]; BCa patient B3, SPECT/CT",1.8
same,"SUVmax, tumor (T)","[1]; BCa patient B3, SPECT/CT",0.87
same,"SUVmax, single LN metastasis (LNM)","[1]; BCa patient B4, SPECT/CT",0.58
same,"SUVmax, tumor (T)","[1]; BCa patient B4, SPECT/CT",0.57
same,"SUVmax, single LN metastasis (LNM)","[1]; BCa patient B5, SPECT/CT",1.8
same,"SUVmax, tumor (T)","[1]; BCa patient B5, SPECT/CT",0.87
same,"SUVmax, tumor (T)","[1]; BCa patient B6, SPECT/CT",T: 0.43 (1.5 × 1.5)
same,"SUVmax, tumor (T)","[1]; BCa patient B7, SPECT/CT",T: 0.50 (1.5 × 1.4)
same,patients with high uptake in axillary LN,"[1]; BCa patients, SPECT/CT",four BCa patients
same,patients with increased accumulation in the tumor,"[1]; BCa patients, SPECT/CT",seven out of seven
same,median activity accumulation (SUVmax),[1]; LN metastases in BCa patients,1.8 [0.58–1.8]
same,median activity accumulation (SUVmax),[1]; breast tumors,0.87 [0.43–1.75]
same,tissue uptake dose at 2 h,"clinical; female, Gall bladder",5 ± 5 %ID
same,tissue uptake dose at 4 h,"clinical; female, Gall bladder",5 ± 4 %ID
same,tissue uptake dose at 6 h,"clinical; female, Gall bladder",4 ± 3 %ID
same,tissue uptake dose at 24 h,"clinical; female, Gall bladder",0.3 ± 0.1 %ID
same,tissue uptake dose at 2 h,"clinical; female, Jejunum",21 ± 9 %ID
same,tissue uptake dose at 4 h,"clinical; female, Jejunum",25 ± 17 %ID
same,tissue uptake dose at 6 h,"clinical; female, Jejunum",13 ± 10 %ID
same,tissue uptake dose at 24 h,"clinical; female, Jejunum",3 ± 2 %ID
same,tissue uptake dose at 2 h,"clinical; female, Kidney",5 ± 3 %ID
same,tissue uptake dose at 4 h,"clinical; female, Kidney",3 ± 3 %ID
same,tissue uptake dose at 6 h,"clinical; female, Kidney",3 ± 3 %ID
same,tissue uptake dose at 24 h,"clinical; female, Kidney",5 ± 5 %ID
same,tissue uptake dose at 2 h,"clinical; female, Liver",6 ± 2 %ID
same,tissue uptake dose at 4 h,"clinical; female, Liver",3 ± 1 %ID
same,tissue uptake dose at 6 h,"clinical; female, Liver",3 ± 2 %ID
same,tissue uptake dose at 24 h,"clinical; female, Liver",2 ± 2 %ID
same,tissue uptake dose at 2 h,"clinical; female, Lower colon",1.4 ± 0.8 %ID
same,tissue uptake dose at 4 h,"clinical; female, Lower colon",1 ± 0.9 %ID
same,tissue uptake dose at 6 h,"clinical; female, Lower colon",0.8 ± 0.7 %ID
same,tissue uptake dose at 24 h,"clinical; female, Lower colon",20 ± 15 %ID
same,tissue uptake dose at 2 h,"clinical; female, Upper colon",1.1 ± 0.6 %ID
same,tissue uptake dose at 4 h,"clinical; female, Upper colon",6 ± 12 %ID
same,tissue uptake dose at 6 h,"clinical; female, Upper colon",19 ± 17 %ID
same,tissue uptake dose at 24 h,"clinical; female, Upper colon",15 ± 10 %ID
same,tissue uptake dose at 2 h,"clinical; female, Urinary bladder",4 ± 7 %ID
same,tissue uptake dose at 4 h,"clinical; female, Urinary bladder",1 ± 2 %ID
same,tissue uptake dose at 6 h,"clinical; female, Urinary bladder",0.3 ± 0.3 %ID
same,tissue uptake dose at 24 h,"clinical; female, Urinary bladder",0.2 ± 0.2 %ID
same,activity in liver and kidneys,clinical,over 3 % of injected activity
same,injected activity excreted via bile,clinical,Up to 40%
same,route of excretion,clinical,predominantly hepatobiliary excretion
same,tissue uptake dose at 2 h,"clinical; male, Gall bladder",2 ± 2 %ID
same,tissue uptake dose at 4 h,"clinical; male, Gall bladder",2 ± 2 %ID
same,tissue uptake dose at 6 h,"clinical; male, Gall bladder",2 ± 2 %ID
same,tissue uptake dose at 24 h,"clinical; male, Gall bladder",2.2 ± 0.3 %ID
same,tissue uptake dose at 2 h,"clinical; male, Jejunum",12 ± 12 %ID
same,tissue uptake dose at 4 h,"clinical; male, Jejunum",9 ± 9 %ID
same,tissue uptake dose at 6 h,"clinical; male, Jejunum",9 ± 19 %ID
same,tissue uptake dose at 24 h,"clinical; male, Jejunum",10 ± 1 %ID
same,tissue uptake dose at 2 h,"clinical; male, Kidney",2.9 ± 0.9 %ID
same,tissue uptake dose at 4 h,"clinical; male, Kidney",3 ± 3 %ID
same,tissue uptake dose at 6 h,"clinical; male, Kidney",3 ± 1 %ID
same,tissue uptake dose at 24 h,"clinical; male, Kidney",2.4 ± 0.9 %ID
same,tissue uptake dose at 2 h,"clinical; male, Liver",4 ± 2 %ID
same,tissue uptake dose at 4 h,"clinical; male, Liver",2.2 ± 0.8 %ID
same,tissue uptake dose at 6 h,"clinical; male, Liver",1.8 ± 0.6 %ID
same,tissue uptake dose at 24 h,"clinical; male, Liver",2 ± 1 %ID
same,tissue uptake dose at 2 h,"clinical; male, Lower colon",0.6 ± 0.5 %ID
same,tissue uptake dose at 4 h,"clinical; male, Lower colon",0.2 ± 0.2 %ID
same,tissue uptake dose at 6 h,"clinical; male, Lower colon",0.5 ± 0.4 %ID
same,tissue uptake dose at 24 h,"clinical; male, Lower colon",0.4 ± 0.2 %ID
same,tissue uptake dose at 2 h,"clinical; male, Upper colon",1.1 ± 1 %ID
same,tissue uptake dose at 4 h,"clinical; male, Upper colon",8 ± 3 %ID
same,tissue uptake dose at 6 h,"clinical; male, Upper colon",20 ± 13 %ID
same,tissue uptake dose at 24 h,"clinical; male, Upper colon",7 ± 8 %ID
same,tissue uptake dose at 2 h,"clinical; male, Urinary bladder",4 ± 6 %ID
same,tissue uptake dose at 4 h,"clinical; male, Urinary bladder",2 ± 1 %ID
same,tissue uptake dose at 6 h,"clinical; male, Urinary bladder",0.6 ± 0.4 %ID
same,tissue uptake dose at 24 h,"clinical; male, Urinary bladder",0.16 ± 0.07 %ID
same,radionuclide-associated dose burden per patient,[2],3-6 mSv/study
same,"Absorbed dose, Ovaries",[2]; iv,0.018 ± 0.008
same,"Absorbed dose, Testes",[2]; iv,0.004 ± 0.005
same,"Absorbed dose, Uterus",[2]; iv,0.020 ± 0.008
same,SUVmax,"[3]; PCa patient P2, SPECT/CT",0.78 (1.7 × 2)
same,SUVmax,"[3]; PCa patient P3, SPECT/CT",1.21 (4.1 × 2.8)
same,SUVmax,"[3]; PCa patient P4, SPECT/CT",1.14 (1.8 × 2.0)
same,Ratio SUVmax in Tumor to Background,[3]; PCa patient P5,No accumulation
same,SUVmax,"[3]; PCa patient P5, SPECT/CT",No accumulation
same,Ratio SUVmax in Tumor to Background,[3]; PCa patient P6,No accumulation
same,SUVmax,"[3]; PCa patient P6, SPECT/CT",No accumulation
same,patients with uptake in tumors identified,"[3]; PCa patients, SPECT/CT",four out of six
same,median activity accumulation (SUVmax),"[3]; prostate tumors, 2 h after injection, Me [Q1–Q3]",1.18 [0.78–1.67]
O=C(O)CC[C@H](NC(=O)N[C@@H](CCCCNC(=O)c1ccc([18F])nc1)C(=O)O)C(=O)O [^18F-DCFPyL],sensitivity in the detection of LN metastases,[4],40%
O=C([O-])CN(CCN(CC(=O)[O-])Cc1cc(CCC(=O)NCCCCCC(=O)NCCCC[C@H](NC(=O)N[C@@H](CCC(=O)O)C(=O)O)C(=O)O)ccc1[O-])Cc1cc(CCC(=O)O)ccc1[O-].[68Ga+3].[OH3+] [^68Ga-PSMA],sensitivity in the detection of LN metastases,[4],61%
"D-Phe-Gln-Trp-Ala-Val-Sar-His-Sta-Leu-NHEt [[^99mTc]Tc-DB15, ^99mTc-labeled BN antagonist for SPECT, tested in two patients]",route of excretion,[5],Predominantly renal excretion
